Experiments:
[1] = biological target: T1, FGF-5 (Homo sapiens, UniProt P12034); test: ELISA binding to coated FGF-5; settings: 50 nM cytokine coated
T1 sequence (P12034 21-268): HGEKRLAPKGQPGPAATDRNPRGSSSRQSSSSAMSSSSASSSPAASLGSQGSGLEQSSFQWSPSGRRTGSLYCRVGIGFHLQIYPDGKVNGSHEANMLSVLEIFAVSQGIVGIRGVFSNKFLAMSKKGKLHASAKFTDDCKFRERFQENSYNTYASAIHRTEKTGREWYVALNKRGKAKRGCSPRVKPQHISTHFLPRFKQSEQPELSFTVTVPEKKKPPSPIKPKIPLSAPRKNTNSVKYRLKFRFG
Description: (§1) ELISA plates were coated with cytokines or BSA and further incubated with TNC III1-5 to analyze binding of TNC III1-5 to a wide variety of cytokines. […] Results are depicted in FIG. 3. Method: 50 nM of cytokine was coated for (1 hr, 37° C.). After blocking with 2% BSA (1 hr, RT). 100 nM TNC III1-5 was applied in PBST (0.05% tween, 0.1% bovine serum albumin (BSA)) (1 hr, RT). TNC III1-5 was detected with horseradish peroxidase (HRP)-anti-HIS in PBST (1 hr, RT) and developed with 3,3′,5,5′-tetramethylbenzidine (TMB), a soluble colorimetric HRP […]. Addition of sulfuric acid stop solution changes the color to yellow, enabling accurate measurement of the intensity at 450 nm using a spectrophotometer or plate reader. […] Heparin (4 μM) was added to TNC III1-5 to test the effect of blocking the heparin binding site of TNC III1-5, which has been defined as domain TNC III5 (Weber, Zimmermann, et al., 1995).
(§2) ELISA plates were coated with cytokines or BSA and further incubated with Fg β15-66 to analyze binding of […] to a wide variety of cytokines. […] Results are depicted in FIG. 4. Method: The methods were analogous to those used in Example 3.

[2] = biological target: T2, BMP-2/7 (Homo sapiens, UniProt P12643+P18075); test: ELISA binding to coated BMP-2/7; settings: 50 nM cytokine coated
T2 sequence (P12643 283-396): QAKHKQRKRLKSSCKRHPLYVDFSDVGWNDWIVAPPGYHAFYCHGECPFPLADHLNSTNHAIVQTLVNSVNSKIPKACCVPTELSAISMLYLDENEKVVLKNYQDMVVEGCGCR
T2 sequence (P18075 293-431): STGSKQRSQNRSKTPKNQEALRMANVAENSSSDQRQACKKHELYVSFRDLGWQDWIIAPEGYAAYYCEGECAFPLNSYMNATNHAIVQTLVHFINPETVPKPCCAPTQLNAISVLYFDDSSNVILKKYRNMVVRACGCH
Description: as §1, §2

[3] = system: HUVEC cells; test: HUVEC proliferation with cytokines with or without fibrinogen or Fg β15-66; type: cell-based, human; settings: 72 hours; ≧100-fold molar excess; VEGF-A165, PlGF-2, FGF-2
Description: To verify that cytokines bound to Fg β15-66 are still bioactive, the proliferation of HUVEC cells was tested for different cytokines with and without the presence of Fg β15-66. Method: HUVEC cells were stimulated with various cytokines: VEGF-A165, PlGF-2, and FGF-2 with or without fibrinogen or Fg β15-66 in excess (≧100-fold molar excess).

[4] = biological target: T3, PlGF-3 (Homo sapiens, UniProt P49763); test: ELISA binding to coated PlGF-3; settings: 50 nM cytokine coated
T3 sequence (P49763 19-221): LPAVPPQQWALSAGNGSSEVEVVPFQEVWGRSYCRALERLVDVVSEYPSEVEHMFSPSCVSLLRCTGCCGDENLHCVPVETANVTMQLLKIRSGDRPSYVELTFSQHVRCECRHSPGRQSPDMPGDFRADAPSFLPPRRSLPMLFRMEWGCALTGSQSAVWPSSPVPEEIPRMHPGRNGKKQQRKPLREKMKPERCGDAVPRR
Description: as §1, §2

[5] = biological target: T4, FGF-6 (Homo sapiens, UniProt P10767); test: ELISA binding to coated FGF-6; settings: 50 nM cytokine coated
T4 sequence (P10767 38-208): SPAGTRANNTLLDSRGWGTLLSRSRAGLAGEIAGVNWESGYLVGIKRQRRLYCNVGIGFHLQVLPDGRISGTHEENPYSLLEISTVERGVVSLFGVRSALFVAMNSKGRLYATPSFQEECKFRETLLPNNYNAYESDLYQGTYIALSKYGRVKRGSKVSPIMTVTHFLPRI
Description: as §1

[6] = biological target: PDGF-DD (Homo sapiens, UniProt Q9GZP0); test: ELISA binding to coated PDGF-DD; settings: 50 nM cytokine coated
Description: as §1

[7] = biological target: T5, FGF-17 (Homo sapiens, UniProt O60258); test: ELISA binding to coated FGF-17; settings: 50 nM cytokine coated
T5 sequence (O60258 23-216): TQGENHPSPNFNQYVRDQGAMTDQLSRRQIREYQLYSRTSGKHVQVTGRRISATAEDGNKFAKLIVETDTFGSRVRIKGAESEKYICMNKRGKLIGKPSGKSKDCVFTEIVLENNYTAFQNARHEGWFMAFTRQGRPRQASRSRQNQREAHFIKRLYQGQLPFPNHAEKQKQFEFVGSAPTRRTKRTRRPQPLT
Description: as §1

[8] = biological target: T6, VEGF-C (Homo sapiens, UniProt P49767); test: ELISA binding to coated VEGF-C; settings: 50 nM cytokine coated
T6 sequence (P49767 112-419): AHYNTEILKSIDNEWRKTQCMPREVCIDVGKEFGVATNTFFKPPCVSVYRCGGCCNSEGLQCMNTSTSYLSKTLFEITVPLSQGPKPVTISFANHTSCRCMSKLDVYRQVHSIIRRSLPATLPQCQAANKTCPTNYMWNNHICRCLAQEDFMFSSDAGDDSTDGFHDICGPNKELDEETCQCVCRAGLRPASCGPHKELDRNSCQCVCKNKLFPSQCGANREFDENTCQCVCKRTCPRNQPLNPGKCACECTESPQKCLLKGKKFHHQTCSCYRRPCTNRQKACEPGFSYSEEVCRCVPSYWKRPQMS
Description: as §1

[9] = biological target: T7, FGF-18 (Homo sapiens, UniProt O76093); test: ELISA binding to coated FGF-18; settings: 50 nM cytokine coated
T7 sequence (O76093 28-207): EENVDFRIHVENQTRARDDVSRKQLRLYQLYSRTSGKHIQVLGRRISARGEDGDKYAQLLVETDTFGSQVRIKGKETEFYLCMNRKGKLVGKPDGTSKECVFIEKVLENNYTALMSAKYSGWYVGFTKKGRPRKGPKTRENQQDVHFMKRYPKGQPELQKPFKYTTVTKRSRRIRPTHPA
Description: as §1

Sequence of PDGF-DD (Q9GZP0 250-370 limits assumed): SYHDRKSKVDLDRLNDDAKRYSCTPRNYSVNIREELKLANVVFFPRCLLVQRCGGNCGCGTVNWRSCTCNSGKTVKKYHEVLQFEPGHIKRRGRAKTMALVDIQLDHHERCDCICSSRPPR

B1: Fg β15-66: heparin-binding domain of human fibrinogen β chain aa15-66 (SEQ ID NO:8); construct with TG substrate and His tag, SEQ ID NO:2 (protein)
chain: GSNQEQVSPLGHRPLDKKREEAPSLRPAPPPISGGGYRARPAKAAATQKKVERKAPDAGGCGHHHHHH
modifications: GS linker, transglutaminase substrate, the Fg beta15-66, with a Histidine tag
no synergistic effect: synergistic effect on HUVEC proliferation, cytokines plus protein vs cytokines alone [3]
positive binding: binding to FGF-5 (ELISA, signal above BSA background) [1] | binding to BMP-2/7 (ELISA, signal above BSA background) [2] | binding to PlGF-3 (ELISA, signal above BSA background) [4]

B2: TNC III1-5: recombinant tenascin C fibronectin type III repeats 1-5 (E622 to A1074) with transglutaminase substrate NQEQVSPL and 6×His tag, SEQ ID NO:1 (protein)
chain: METDTLLLWVLLLWVPGSTGDAAQPAIEGRNQEQVSPLGGSEVSPPKDLVVTEVTEETVNLAWDNEMRVTEYLVVYTPTHEGGLEMQFRVPGDQTSTIIQELEPGVEYFIRVFAILENKKSIPVSARVATYLPAPEGLKFKSIKETSVEVEWDPLDIAFETWEIIFRNMNKEDEGEITKSLRRPETSYRQTGLAPGQEYEISLHIVKNNTRGPGLKRVTTTRLDAPSQIEVKDVTDTTALITWFKPLAEIDGIELTYGIKDVPGDRTTIDLTEDENQYSIGNLKPDTEYEVSLISRRGDMSSNPAKETFTTGLDAPRNLRRVSQTDNSITLEWRNGKAAIDSYRIKYAPISGGDHAEVDVPKSQQATTKTTLTGLRPGTEYGIGVSAVKEDKESNPATINAATELDTPKDLQVSETAETSLTLLWKTPLAKFDRYRLNYSLPTGQWVGVQLPRNTTSYVLRGLEPGQEYNVLLTAEKGRHKSKPARVKASTEQAGGGSHHHHHH
modifications: Tenascin III signal sequence with polyhistidine tag
positive binding: binding to FGF-6 (ELISA, signal above BSA background) [5] | binding to PDGF-DD (ELISA, signal above BSA background) [6] | binding to FGF-17 (ELISA, signal above BSA background) [7] | binding to VEGF-C (ELISA, signal above BSA background) [8] | binding to FGF-18 (ELISA, signal above BSA background) [9]

From patent publication US9540428B2, “Extracellular matrix heparin-binding domains” (EPFL-TTO, priority 2012, dated 2017)
